Assay results as given in US20120316071A1 (published 2012).
Changes are numbered by the printed parent chain. Names and notes keep the numbering of the source.

T1: rHuman Erythropoietin R/Fc Chimera, CF (R&D Systems Cat#963-ER) (human, UniProt P19235 25-250)
T1 construct: Bought recombinant Fc chimera; also called EPO R; EPO R/Fc; not shown: Fc of the bought R&D Systems chimera
T1 sequence (looked up): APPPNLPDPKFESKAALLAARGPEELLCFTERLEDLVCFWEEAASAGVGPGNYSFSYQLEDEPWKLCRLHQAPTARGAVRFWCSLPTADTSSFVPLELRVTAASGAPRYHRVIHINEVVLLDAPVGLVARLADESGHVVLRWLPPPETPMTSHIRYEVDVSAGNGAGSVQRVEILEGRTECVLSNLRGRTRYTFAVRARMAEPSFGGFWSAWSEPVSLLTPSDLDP

B1: Fab VH1-46_IGHD6-6*01_IGHJ1*01 S102A & L6_IGKJ1*01 (Fab, V domains shown)
VH: QVQLVQSGAEVKKPGASVKVSCKASGYTFTSYYMHWVRQAPGQGLEWMGIINPSGGSTSYAQKFQGRVTMTRDTSTSTVYMELSSLRSEDTAVYYCAREEYASSSAEYFQHWGQGTLVTVSS
VL: not shown
notes: Fab
B2: Fab VH1-46_IGHD6-6*01_IGHJ1*01 S103P & L6_IGKJ1*01 (Fab, V domains shown)
VH: B1 VH with A102S, S103P
VL: not shown
notes: Fab made in E. coli; The heavy chain variable region was cloned into Plasmid A (CH1, His6 and Flag tags) and the kappa light chain variable region into Plasmid C (kappa CL)
B3: Fab VH1-46_IGHD6-6*01_IGHJ1*01 S103A & L6_IGKJ1*01 (Fab, V domains shown)
VH: B1 VH with A102S, S103A
VL: not shown
notes: as for B2
B4: Fab VH1-46_IGHD6-6*01_IGHJ1*01 S104H & L6_IGKJ1*01 (Fab, V domains shown)
VH: B1 VH with A102S, S104H
VL: not shown
notes: as for B2
B5: Fab VH1-46_IGHD6-6*01_IGHJ1*01 S104F & L6_IGKJ1*01 (Fab, V domains shown)
VH: B1 VH with A102S, S104F
VL: not shown
notes: Fab
B6: Fab VH1-46_IGHD6-6*01_IGHJ1*01 S103P & L6_IGKJ1*01 (Fab, V domains shown)
VH: B1 VH with A102S, S103P
VL: not shown
notes: Fab
B7: Fab VH5-51_IGHD5-18*01>3_IGHJ4*01 G100K/G104T G24T/S28R/G35V (H:KT TRV) & V3-4_IGLJ1*01 V91L/S96P S52M (Fab, V domains shown)
VH: EVQLVQSGAEVKKPGESLKISCKTSGYRFTSYWIVWVRQMPGKGLEWMGIIYPGDSDTRYSPSFQGQVTISADKSISTAYLQWSSLKASDTAMYYCARRKYSYTYDYFDYWGQGTLVTVSS
VL: QTVVTQEPSFSVSPGGTVTLTCGLSSGSVSTSYYPSWYQQTPGQAPRTLIYMTNTRSSGVPDRFSGSILGNKAALTITGAQADDESDYYCLLYMGPGISYVFGTGTKVTVL
notes: Tested as a Fab made in E. coli; also called H:KT TRV & L:LP S52M

Columns and labels:
[1] = target: T2, Recombinant Human DLL4 (R&D Systems Cat#1506-D4/CF) (human, UniProt Q9NR61 27-524); test: 96-well plate ECL, DLL4 coated
T2 construct: bought recombinant protein; also called rHuman DLL4; delta-like protein 4

[2] = target: T3, rHuman HGF R/c-MET/Fc Chimera, CF (R&D Systems Cat#358-MT/CF) (human, UniProt P08581 25-932); test: ECL Multispot (MSD), antigen spotted on plate, Fab 0.01 uM;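 also: electrochemiluminescence of each antigen spot divided by the blank of the same well, with a value of 4 or above scoring the Fab as a binding hit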
T3 construct: Bought recombinant Fc chimera; also called HGF R/Fc; not shown: Fc of the bought R&D Systems chimera
T3 sequence (P08581 25-932, change not shown): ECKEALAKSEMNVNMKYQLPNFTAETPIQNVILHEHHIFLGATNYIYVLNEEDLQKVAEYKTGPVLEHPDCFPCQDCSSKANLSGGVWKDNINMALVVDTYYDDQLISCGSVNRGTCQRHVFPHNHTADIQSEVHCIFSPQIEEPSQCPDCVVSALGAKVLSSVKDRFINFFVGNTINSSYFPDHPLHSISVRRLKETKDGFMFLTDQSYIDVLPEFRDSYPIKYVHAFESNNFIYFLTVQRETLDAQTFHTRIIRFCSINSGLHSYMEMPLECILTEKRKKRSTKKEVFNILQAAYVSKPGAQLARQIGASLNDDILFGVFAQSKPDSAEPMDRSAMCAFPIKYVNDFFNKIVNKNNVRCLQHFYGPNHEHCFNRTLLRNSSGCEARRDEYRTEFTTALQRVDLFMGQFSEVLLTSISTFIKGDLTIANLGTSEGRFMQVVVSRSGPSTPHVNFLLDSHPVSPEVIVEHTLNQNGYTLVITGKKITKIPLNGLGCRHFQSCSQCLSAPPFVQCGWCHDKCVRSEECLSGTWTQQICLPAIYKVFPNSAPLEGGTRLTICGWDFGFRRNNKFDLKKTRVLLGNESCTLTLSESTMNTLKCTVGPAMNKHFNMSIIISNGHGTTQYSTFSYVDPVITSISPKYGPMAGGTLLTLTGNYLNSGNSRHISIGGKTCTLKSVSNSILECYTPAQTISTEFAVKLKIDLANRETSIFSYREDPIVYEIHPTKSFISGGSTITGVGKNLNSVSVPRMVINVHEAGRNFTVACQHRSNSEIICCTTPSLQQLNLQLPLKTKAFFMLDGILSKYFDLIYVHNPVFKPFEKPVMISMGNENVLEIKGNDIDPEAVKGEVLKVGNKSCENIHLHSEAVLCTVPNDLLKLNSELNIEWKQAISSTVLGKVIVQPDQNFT

[3] = target: T4, rHuman Notch-1/Fc Chimera, CF (R&D Systems Cat#3647-TK) (human, UniProt P46531 19-526); test: as above
T4 construct: Bought recombinant Fc chimera; not shown: Fc of the bought R&D Systems chimera

[4] = target: T5, Recombinant Human DLL4 (R&D Systems Cat#1506-D4/CF) (human, UniProt Q9NR61 27-524); test: as above
T5 construct: Bought recombinant protein; also called delta-like protein 4; rHuman DLL4

[5] = target: T6, rHuman P-Cadherin/Fc Chimera, CF (R&D Systems Cat#861-PC) (human, UniProt P22223 108-654); test: as above
T6 construct: Bought recombinant Fc chimera; not shown: Fc of the bought R&D Systems chimera

[6] = target: T7, rHuman ErbB2/Fc Chimera, CF (R&D Systems Cat#1129-ER) (human, UniProt P04626 23-652); test: as above
T7 construct: Bought recombinant Fc chimera; not shown: Fc of the bought R&D Systems chimera

[7] = target: T8, rHuman CD44/Fc Chimera, CF (R&D Systems Cat#3660-CD) (human, UniProt P16070 21-220); test: as above
T8 construct: Bought recombinant Fc chimera; not shown: Fc of the bought R&D Systems chimera

[8] = target: T1, rHuman Erythropoietin R/Fc Chimera, CF …; test: as above
[9] = target: T9, rHuman IGF-1 sR, CF (R&D Systems Cat#391-GR) (human, UniProt P08069 31-932); test: as above
T9 construct: Bought recombinant soluble receptor; also called insulin-like growth factor-1 soluble receptor

[10] = target: T10, rHuman EGF R/Fc Chimera, CF (R&D Systems Cat#344-ER) (human, UniProt P00533 25-645); test: as above
T10 construct: Bought recombinant Fc chimera; not shown: Fc of the bought R&D Systems chimera

[11] = target: T3, rHuman HGF R/c-MET/Fc Chimera, CF (R&D …); test: ECL Multispot (MSD), antigen spotted on plate, Fab 0.1 uM;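 also: ratio compares each antigen's electrochemiluminescence to the blank within the same well, with a ratio of at least 4 counted as a binding Fab hit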
[12] = target: T4, rHuman Notch-1/Fc Chimera, CF (R&D …); test: as above
[13] = target: T5, Recombinant Human DLL4 (R&D Systems …); test: as above
[14] = target: T6, rHuman P-Cadherin/Fc Chimera, CF (R&D …); test: as above
[15] = target: T7, rHuman ErbB2/Fc Chimera, CF (R&D …); test: as above
[16] = target: T8, rHuman CD44/Fc Chimera, CF (R&D Systems …); test: as above
[17] = target: T1, rHuman Erythropoietin R/Fc Chimera, CF …; test: as above
[18] = target: T9, rHuman IGF-1 sR, CF (R&D Systems …); test: as above
[19] = target: T10, rHuman EGF R/Fc Chimera, CF (R&D …); test: as above
[20] = target: T11, Recombinant Human DLL4 (delta-like protein 4) (human, UniProt Q9NR61 27-524); test: ELISA, DLL4 coated on plate; Fab at 3.70 (head prints µM, text says nM)
T11 construct: Bought recombinant protein (R&D Systems Cat#1506-D4/CF); also called rHuman DLL4; Delta-like 4

[21] = target: T11, Recombinant Human DLL4 (delta-like …); test: ELISA, DLL4 coated on plate; Fab at 33.33 (head prints µM, text says nM)
[22] = target: T11, Recombinant Human DLL4 (delta-like …); test: ELISA, DLL4 coated on plate; Fab at 100 (head prints µM, text says nM)
[23] = target: T11, Recombinant Human DLL4 (delta-like …); test: ELISA, DLL4 coated on plate; Fab at 0.05 (head prints µM, text says nM)
[24] = target: T11, Recombinant Human DLL4 (delta-like …); test: ELISA, DLL4 coated on plate; Fab at 0.41 (head prints µM, text says nM)
[25] = target: T11, Recombinant Human DLL4 (delta-like …); test: ELISA, DLL4 coated on plate; Fab at 1.23 (head prints µM, text says nM)
[26] = target: T11, Recombinant Human DLL4 (delta-like …); test: ELISA, DLL4 coated on plate; Fab at 11.11 (head prints µM, text says nM)
[27] = target: T11, Recombinant Human DLL4 (delta-like …); test: ELISA, DLL4 coated on plate; Fab at 0.14 (head prints µM, text says nM)

Binder | fold signal/noise ratio against the parent Fab [1] [fold] | ECL signal/noise ratio [2] | ECL signal/noise ratio [3] | ECL signal/noise ratio [4] | ECL signal/noise ratio [5] | ECL signal/noise ratio [6] | ECL signal/noise ratio [7] | ECL signal/noise ratio [8] | ECL signal/noise ratio [9] | ECL signal/noise ratio [10] | ECL signal/noise ratio [11] | ECL signal/noise ratio [12] | ECL signal/noise ratio [13] | ECL signal/noise ratio [14] | ECL signal/noise ratio [15] | ECL signal/noise ratio [16] | ECL signal/noise ratio [17] | ECL signal/noise ratio [18] | ECL signal/noise ratio [19] | other results
B1 | ~3 |  |  |  |  |  |  |  |  |  |  |  |  |  |  |  |  |  |  | 
B2 |  | 1.2 | 1.8 | 22.9 | 1.1 | 2 | 1.5 | 1.8 | 1 | 1.8 | 1.9 | 2.6 | 139 | 1.4 | 2.2 | 2.1 | 2.4 | 2 | 2.3 | 
B3 |  | 1.2 | 1.4 | 4.5 | 1.3 | 0.9 | 1.3 | 1.1 | 1.1 | 1.3 | 1 | 1.2 | 31.6 | 1.4 | 1 | 1.4 | 1.4 | 1.2 | 1.2 | 
B4 |  | 1 | 1.4 | 27 | 1 | 1 | 1.4 | 1.2 | 1.5 | 1 | 0.8 | 0.8 | 88.3 | 0.8 | 1 | 1.1 | 1 | 1 | 0.6 | 
B5 | ≥ 4 |  |  |  |  |  |  |  |  |  |  |  |  |  |  |  |  |  |  | 
B6 | ~3 |  |  |  |  |  |  |  |  |  |  |  |  |  |  |  |  |  |  | 
B7 |  |  |  |  |  |  |  |  |  |  |  |  |  |  |  |  |  |  |  | ELISA signal [20]: 0.03; ELISA signal [21]: 0.12; ELISA signal [22]: 0.24; ELISA signal [23]: 0.02; ELISA signal [24]: 0.03; ELISA signal [25]: 0.03; ELISA signal [26]: 0.06; ELISA signal [27]: 0.02
